Earlier results in PMC5135002.

Target: CYLD USP (Homo sapiens) (UniProt Q9NQC7)
UniProt Q9NQC7, sequence (Q9NQC7 589-953): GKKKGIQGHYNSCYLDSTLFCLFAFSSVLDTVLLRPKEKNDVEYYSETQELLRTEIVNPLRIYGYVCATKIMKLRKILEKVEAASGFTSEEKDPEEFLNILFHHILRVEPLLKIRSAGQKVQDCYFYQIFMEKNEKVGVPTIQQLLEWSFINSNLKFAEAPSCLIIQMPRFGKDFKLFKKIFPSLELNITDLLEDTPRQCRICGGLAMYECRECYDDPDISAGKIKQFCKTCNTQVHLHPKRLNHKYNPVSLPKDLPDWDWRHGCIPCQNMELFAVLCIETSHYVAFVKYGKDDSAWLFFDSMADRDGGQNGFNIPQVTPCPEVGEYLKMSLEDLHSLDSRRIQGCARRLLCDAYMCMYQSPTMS

Kd: 10 nM
Substance: SPATA2 PUB (from UniProt Q9UM82)
